Experimental data taken from patent US20250019439A1 (Adimab, published 2025).

Tests used:
ADI-70326 = target: T1, ADI-70326; assay: SPR Carterra, yeast anti-ID
T1 construct: anti-CD3 antibody made in CHO cells, captured by anti-human Fc
Experimental: (§1) Kinetic analysis was conducted at 25° C. in an HBSTE running buffer system (Carterra Cat #3630) using a Carterra LSA (Carterra USA, Salt Lake City, UT). The sample compartment was maintained at 20° C. for the duration of each experiment.
(§2) For antibody capture experiments, a goat anti-human Fc antibody (Jackson ImmunoResearch) was covalently coupled to an HC30M sensor chip surface via standard amine coupling (1:1 EDC:NHS) and then blocked with ethanolamine (1.0 M, pH 8.5). Covalent coupling steps were performed in 25 mM MES buffer (Carterra, Cat #3625) plus 0.05% Tween20. The anti-CD3 antibodies (100 nM in running buffer) were flowed over discrete regions of interest on the chip surface for 5 minutes. […] Dissociation of the anti-idiotype antibodies was monitored for 300s. Several blank buffer samples were injected over the entire chip surface at the start of each non-regenerative kinetic cycle. The preceding blank buffer injection was used for blank surface subtraction. At the end of each non-regenerative kinetic cycle, all surfaces were regenerated via two 30s injections of 10 mM glycine, pH 1.7.
(§3) For data processing and fitting, sensorgrams were double reference subtracted with a baseline drift correction of 4 RU. Sensorgrams were y-aligned and baseline corrected, filtered and cropped to include only the association and dissociation steps. Data was fitted to a 1:1 binding model using Carterra Kinetics Data Analysis software version 1.7.1.3055.

ADI-70327 = target: T2, ADI-70327; assay: SPR Carterra, yeast anti-ID
T2 construct: anti-CD3 antibody made in CHO cells, captured by anti-human Fc
Experimental: as §1, §2, §3

ADI-70330 = target: T3, ADI-70330; assay: SPR Carterra, yeast anti-ID
T3 construct: anti-CD3 antibody made in CHO cells, captured by anti-human Fc
Experimental: as §1, §2, §3

ADI-67445 = target: T4, ADI-67445; assay: SPR Carterra, yeast anti-ID
T4 construct: anti-CD3 antibody made in CHO cells, captured by anti-human Fc
Experimental: as §1, §2, §3

ADI-26909 = target: T5, ADI-26909; assay: SPR Carterra, yeast anti-ID
T5 construct: anti-CD3 antibody made in CHO cells, captured by anti-human Fc
Experimental: as §1, §2, §3

ADI-26921 IgG = target: T6, ADI-26921 IgG; assay: SPR Carterra, yeast anti-ID
T6 construct: anti-CD3 IgG
Experimental: as §1, §2, §3

ADI-26915 = target: T7, ADI-26915; assay: SPR Carterra, yeast anti-ID
T7 construct: anti-CD3 antibody made in CHO cells, captured by anti-human Fc
Experimental: as §1, §2, §3

ADI-48587 = target: T8, ADI-48587; assay: SPR Carterra, yeast anti-ID
T8 construct: pH-dependent anti-CD3 antibody made in CHO cells
Experimental: as §1, §2, §3

CTL-62223 = target: T9, CTL-62223; assay: SPR Carterra, yeast anti-ID
T9 construct: also called mosunetuzumab
Experimental: as §1, §2, §3

CTL-62227 = target: T10, CTL-62227; assay: SPR Carterra, yeast anti-ID
T10 construct: also called odronextamab
Experimental: as §1, §2, §3

CTL-62228 = target: T11, CTL-62228; assay: SPR Carterra, yeast anti-ID
T11 construct: also called glofitamab
Experimental: as §1, §2, §3

CTL-62240 = target: T12, CTL-62240; assay: SPR Carterra, yeast anti-ID
T12 construct: also called ONO-4685
Experimental: as §1, §2, §3

ADI-50024 = target: T13, ADI-50024; assay: SPR Carterra avidity, yeast anti-ID
T13 construct: anti-CD3 antibody made in CHO cells, captured by anti-human Fc
Experimental: as §1, §2, §3

ADI-67450 = target: T14, ADI-67450; assay: SPR Carterra avidity, yeast anti-ID
T14 construct: anti-CD3 antibody made in CHO cells, captured by anti-human Fc
Experimental: as §1, §2, §3

ADI-67447 = target: T15, ADI-67447; assay: SPR Carterra avidity, yeast anti-ID
T15 construct: anti-CD3 antibody made in CHO cells, captured by anti-human Fc
Experimental: as §1, §2, §3

ADI-26913 IgG = target: T16, ADI-26913 IgG; assay: SPR Carterra avidity, yeast anti-ID
T16 construct: anti-CD3 IgG
Experimental: as §1, §2, §3

ADI-26919 = target: T17, ADI-26919; assay: SPR Carterra avidity, yeast anti-ID
T17 construct: anti-CD3 antibody made in CHO cells, captured by anti-human Fc
Experimental: as §1, §2, §3

ADI-26916 IgG = target: T18, ADI-26916 IgG; assay: SPR Carterra avidity, yeast anti-ID
T18 construct: anti-CD3 IgG
Experimental: as §1, §2, §3

ADI-26912 = target: T19, ADI-26912; assay: SPR Carterra avidity, yeast anti-ID
T19 construct: anti-CD3 antibody made in CHO cells, captured by anti-human Fc
Experimental: as §1, §2, §3

ADI-26924 = target: T20, ADI-26924; assay: SPR Carterra avidity, yeast anti-ID
T20 construct: anti-CD3 antibody made in CHO cells, captured by anti-human Fc
Experimental: as §1, §2, §3

ADI-26943 = target: T21, ADI-26943; assay: SPR Carterra avidity, yeast anti-ID
T21 construct: anti-CD3 antibody made in CHO cells, captured by anti-human Fc
Experimental: as §1, §2, §3

ADI-48576 = target: T22, ADI-48576; assay: SPR Carterra avidity, yeast anti-ID
T22 construct: pH-dependent anti-CD3 antibody made in CHO cells
Experimental: as §1, §2, §3

ADI-48592 = target: T23, ADI-48592; assay: SPR Carterra avidity, yeast anti-ID
T23 construct: pH-dependent anti-CD3 antibody made in CHO cells
Experimental: as §1, §2, §3

ADI-48650 = target: T24, ADI-48650; assay: SPR Carterra avidity, yeast anti-ID
T24 construct: pH-dependent anti-CD3 antibody made in CHO cells
Experimental: as §1, §2, §3

ADI-74965 = target: T25, ADI-74965; assay: SPR Carterra avidity, yeast anti-ID
T25 construct: pH-dependent anti-CD3 antibody made in CHO cells
Experimental: as §1, §2, §3

ADI-74966 = target: T26, ADI-74966; assay: SPR Carterra avidity, yeast anti-ID
T26 construct: pH-dependent anti-CD3 antibody made in CHO cells
Experimental: as §1, §2, §3

ADI-74967 = target: T27, ADI-74967; assay: SPR Carterra avidity, yeast anti-ID
T27 construct: pH-dependent anti-CD3 antibody made in CHO cells
Experimental: as §1, §2, §3

ADI-74968 = target: T28, ADI-74968; assay: SPR Carterra avidity, yeast anti-ID
T28 construct: pH-dependent anti-CD3 antibody made in CHO cells
Experimental: as §1, §2, §3

ADI-76358 = target: T29, ADI-76358; assay: SPR Carterra avidity, yeast anti-ID
T29 construct: anti-CD3 antibody made in CHO cells, captured by anti-human Fc
Experimental: as §1, §2, §3

ADI-76359 = target: T30, ADI-76359; assay: SPR Carterra avidity, yeast anti-ID
T30 construct: anti-CD3 antibody made in CHO cells, captured by anti-human Fc
Experimental: as §1, §2, §3

ADI-76360 = target: T31, ADI-76360; assay: SPR Carterra avidity, yeast anti-ID
T31 construct: anti-CD3 antibody made in CHO cells, captured by anti-human Fc
Experimental: as §1, §2, §3

ADI-76361 = target: T32, ADI-76361; assay: SPR Carterra avidity, yeast anti-ID
T32 construct: anti-CD3 antibody made in CHO cells, captured by anti-human Fc
Experimental: as §1, §2, §3

ADI-76362 = target: T33, ADI-76362; assay: SPR Carterra avidity, yeast anti-ID
T33 construct: anti-CD3 antibody made in CHO cells, captured by anti-human Fc
Experimental: as §1, §2, §3

ADI-22523 Fab = target: T34, ADI-22523 Fab; assay: BLI; tip anti-ID IgG, solution ADI-22523 Fab
T34 construct: anti-CD3 Fab by papain digestion of the IgG
Experimental: (§4) ForteBio affinity measurements were performed generally as previously described (Estep et al., MAbs. 2013 5(2):270-8). Briefly, ForteBio affinity measurements were performed by loading antibody IgG or Fabs on-line onto AHC sensors. Sensors were equilibrated off-line in assay buffer for 30 minutes and then monitored on-line for 60 seconds for baseline establishment. For avid binding measurement, sensors with loaded antibodies were exposed to IgG or Fab solutions for 3 minutes, afterwards they were transferred to assay buffer for 3 minutes for off-rate measurement. Kinetics data were fit using a 1:1 binding model in the data analysis software provided by ForteBio to obtain equilibrium dissociation constant (KD=koff/kₒₙ) values. In each column, tip-immobilized antibodies are listed first and solution antibodies second.

ADI-22523 IgG = target: T35, ADI-22523 IgG; assay: BLI; tip anti-ID IgG, solution ADI-22523 IgG
T35 construct: anti-CD3 IgG
Experimental: as §4

ADI-26906 IgG = target: T36, ADI-26906 IgG; assay: SPR Carterra avidity, yeast anti-ID, *koff limit
T36 construct: anti-CD3 IgG
Experimental: as §1, §2, §3

ADI-26920 IgG = target: T37, ADI-26920 IgG; assay: SPR Carterra avidity, yeast anti-ID, *koff limit
T37 construct: anti-CD3 IgG
Experimental: as §1, §2, §3

ADI-76357 = target: T38, ADI-76357; assay: SPR Carterra avidity, yeast anti-ID, *koff limit
T38 construct: anti-CD3 antibody made in CHO cells, captured by anti-human Fc
Experimental: as §1, §2, §3

T1 sequence (VH, as listed by the source limits assumed, chain 1 of 2): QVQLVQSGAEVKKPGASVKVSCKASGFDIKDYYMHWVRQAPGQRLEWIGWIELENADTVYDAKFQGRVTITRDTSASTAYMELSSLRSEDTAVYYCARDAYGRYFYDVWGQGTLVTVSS
T1 sequence (VL, as listed by the source limits assumed, chain 2 of 2): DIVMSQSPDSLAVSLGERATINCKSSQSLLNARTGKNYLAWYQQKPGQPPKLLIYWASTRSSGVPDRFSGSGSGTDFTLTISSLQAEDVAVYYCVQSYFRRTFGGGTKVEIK
T2 sequence (VH, as listed by the source limits assumed, chain 1 of 2): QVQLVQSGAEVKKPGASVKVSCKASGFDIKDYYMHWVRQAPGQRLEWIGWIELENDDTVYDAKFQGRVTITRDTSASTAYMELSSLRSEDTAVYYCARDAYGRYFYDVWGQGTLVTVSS
T37 sequence (VH, as listed by the source limits assumed, chain 1 of 2): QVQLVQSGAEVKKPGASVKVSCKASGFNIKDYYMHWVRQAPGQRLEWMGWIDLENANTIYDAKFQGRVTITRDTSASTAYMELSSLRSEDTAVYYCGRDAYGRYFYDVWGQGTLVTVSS
T37 sequence (VL, as listed by the source limits assumed, chain 2 of 2): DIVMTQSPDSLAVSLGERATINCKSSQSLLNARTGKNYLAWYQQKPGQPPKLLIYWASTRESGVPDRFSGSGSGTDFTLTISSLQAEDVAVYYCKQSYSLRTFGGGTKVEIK
T36 sequence (VH, as listed by the source limits assumed, chain 1 of 2): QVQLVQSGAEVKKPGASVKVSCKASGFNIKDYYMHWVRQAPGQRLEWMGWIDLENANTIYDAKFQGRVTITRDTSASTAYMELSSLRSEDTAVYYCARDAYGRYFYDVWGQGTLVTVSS
T36 sequence (VL, as listed by the source limits assumed, chain 2 of 2): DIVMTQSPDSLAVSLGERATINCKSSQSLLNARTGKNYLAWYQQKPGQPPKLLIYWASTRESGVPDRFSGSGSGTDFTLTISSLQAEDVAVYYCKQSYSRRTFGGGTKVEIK
T25 sequence (VH, as listed by the source, chain 1 of 2): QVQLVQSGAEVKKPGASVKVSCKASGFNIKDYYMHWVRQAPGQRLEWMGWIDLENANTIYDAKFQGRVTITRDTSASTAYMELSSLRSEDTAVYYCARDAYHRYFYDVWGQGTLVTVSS
T25 sequence (VL, as listed by the source, chain 2 of 2): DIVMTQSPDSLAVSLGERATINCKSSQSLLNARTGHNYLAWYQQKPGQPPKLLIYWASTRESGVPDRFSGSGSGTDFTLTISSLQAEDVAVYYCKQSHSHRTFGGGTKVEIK
T28 sequence (VL, as listed by the source, chain 2 of 2): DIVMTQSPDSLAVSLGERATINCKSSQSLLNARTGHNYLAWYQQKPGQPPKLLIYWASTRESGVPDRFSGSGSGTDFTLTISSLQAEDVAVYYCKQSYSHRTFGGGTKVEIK
T29 sequence (VH, as listed by the source, chain 1 of 2): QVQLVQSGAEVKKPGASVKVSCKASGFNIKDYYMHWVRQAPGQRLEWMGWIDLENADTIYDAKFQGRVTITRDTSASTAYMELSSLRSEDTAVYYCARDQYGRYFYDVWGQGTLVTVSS
T6 sequence (VH, as listed by the source limits assumed, chain 1 of 2): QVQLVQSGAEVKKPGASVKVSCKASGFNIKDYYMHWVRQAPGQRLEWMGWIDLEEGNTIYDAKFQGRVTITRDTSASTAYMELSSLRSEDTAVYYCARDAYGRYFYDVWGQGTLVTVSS
T4 sequence (VH, as listed by the source limits assumed, chain 1 of 2): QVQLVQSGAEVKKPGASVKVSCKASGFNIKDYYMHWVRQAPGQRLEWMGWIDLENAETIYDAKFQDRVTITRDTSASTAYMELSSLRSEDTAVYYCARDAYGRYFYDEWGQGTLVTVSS
T27 sequence (VH, as listed by the source, chain 1 of 2): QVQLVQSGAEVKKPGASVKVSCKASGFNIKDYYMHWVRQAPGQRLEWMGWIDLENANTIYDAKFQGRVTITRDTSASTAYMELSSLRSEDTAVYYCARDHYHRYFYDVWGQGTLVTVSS
T27 sequence (VL, as listed by the source, chain 2 of 2): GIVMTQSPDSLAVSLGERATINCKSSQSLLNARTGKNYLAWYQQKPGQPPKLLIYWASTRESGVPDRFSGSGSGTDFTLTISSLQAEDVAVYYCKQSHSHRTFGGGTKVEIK
T22 sequence (VH, as listed by the source, chain 1 of 2): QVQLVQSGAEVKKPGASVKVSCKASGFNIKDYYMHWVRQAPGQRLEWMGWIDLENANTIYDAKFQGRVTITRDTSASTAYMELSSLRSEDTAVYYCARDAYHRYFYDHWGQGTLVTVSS
T22 sequence (VL, as listed by the source, chain 2 of 2): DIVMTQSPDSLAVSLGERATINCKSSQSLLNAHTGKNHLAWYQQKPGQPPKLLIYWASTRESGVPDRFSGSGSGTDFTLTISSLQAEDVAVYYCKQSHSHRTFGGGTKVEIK
T35 sequence (VH, as listed by the source limits assumed, chain 1 of 2): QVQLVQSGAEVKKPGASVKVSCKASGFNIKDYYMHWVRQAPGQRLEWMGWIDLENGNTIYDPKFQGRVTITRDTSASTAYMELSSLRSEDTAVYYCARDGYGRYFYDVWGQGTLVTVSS
T35 sequence (VL, as listed by the source limits assumed, chain 2 of 2): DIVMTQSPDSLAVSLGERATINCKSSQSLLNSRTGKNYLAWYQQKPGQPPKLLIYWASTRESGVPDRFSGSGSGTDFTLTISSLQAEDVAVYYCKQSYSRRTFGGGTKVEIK
T14 sequence (VH, as listed by the source limits assumed, chain 1 of 2): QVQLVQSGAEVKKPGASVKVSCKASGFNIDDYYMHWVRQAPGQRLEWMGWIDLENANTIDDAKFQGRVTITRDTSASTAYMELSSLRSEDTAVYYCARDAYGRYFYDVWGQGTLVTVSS
T18 sequence (VH, as listed by the source, chain 1 of 2): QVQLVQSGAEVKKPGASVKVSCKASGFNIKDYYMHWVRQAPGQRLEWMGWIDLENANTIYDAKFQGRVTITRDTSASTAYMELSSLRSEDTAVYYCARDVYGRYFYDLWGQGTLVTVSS

B1: ADI-34142 (antibody, V domains shown)
VH: EVQLLESGGGLVQPGGSLRLSCAASGFTFSSYAMSWVRQAPGKGLEWVSTISGSGGSTYYADSVKGRFTISRDNSKNTLYLQMNSLRAEDTAVYYCARLGGRRGSGSSYYYYYGMDVWGQGTTVTVSS
VL: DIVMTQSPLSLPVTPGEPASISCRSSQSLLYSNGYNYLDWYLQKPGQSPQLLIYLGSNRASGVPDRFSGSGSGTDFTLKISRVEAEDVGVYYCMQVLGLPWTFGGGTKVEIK
notes: anti-ID IgG
binding result (ADI-70326): no binding (tested: up to 200 nM) | binding result (ADI-70327): no binding (tested: up to 200 nM) | binding result (ADI-70330): no binding (tested: up to 200 nM) | binding result (ADI-67445): no binding (tested: up to 200 nM) | binding result (ADI-26909): no binding (tested: up to 200 nM) | binding result (ADI-26921 IgG): no binding (tested: up to 200 nM) | binding result (ADI-26915): no binding (tested: up to 200 nM) | binding result (ADI-48587): no binding (tested: up to 200 nM) | binding result (CTL-62223): no binding (tested: up to 200 nM) | binding result (CTL-62227): no binding (tested: up to 200 nM) | binding result (CTL-62228): no binding (tested: up to 200 nM) | binding result (CTL-62240): no binding (tested: up to 200 nM) | binding result (ADI-50024): binds | binding result (ADI-67450): binds | Kd (ADI-67447): 21 nM | Kd (ADI-26913 IgG): 11 nM | Kd (ADI-26919): 18 nM | Kd (ADI-26916 IgG): 21 nM | binding result (ADI-26912): binds | Kd (ADI-26924): 32 nM | Kd (ADI-26943): 6.5 nM | Kd (ADI-48576): 76 nM | binding result (ADI-48592): binds | binding result (ADI-48650): binds | binding result (ADI-74965): binds | binding result (ADI-74966): binds | binding result (ADI-74967): binds | Kd (ADI-74968): 45 nM | binding result (ADI-76358): binds | Kd (ADI-76359): 7.3 nM | Kd (ADI-76360): 36 nM | binding result (ADI-76361): binds | binding result (ADI-76362): binds | Kd (ADI-22523 Fab): 14.7 nM | Kd (ADI-22523 IgG): 4.11 nM | Kd (ADI-26906 IgG): 12 nM | Kd (ADI-26920 IgG): 6.1 nM | Kd (ADI-76357): 5.7 nM
